Source: the supplement of paper PMC9170038

Test system: MS2 coat protein
Assay: apparent KD of MS2 coat protein; designed switch direction (-1 OFF switch, 1 ON switch): -1; higher = weaker reporter binding
Outline: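 Normalised cluster fluorescence was curve-fitted, and each design's median over clusters is its apparent KD. Before this, SNAP-549-labelled MS2 coat protein was titrated from 0.7 or 1.5 nM, doubling to 3 µM, over RNA switches transcribed on Illumina chips by stalled E. coli RNA polymerase. Titrations had no input, 200 uM small-molecule ligand, or an oligonucleotide input, and steps lasted 0.8–1.5 h (lowest) to 10–20 min (highest).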

[1] = input ligand: microRNA oligo, concentration not stated
[2] = Eterna round: R95, input ligand: microRNA oligo, concentration not stated
[3] = Eterna round: R95, input ligand: FMN 200 uM
[4] = Eterna round: R95, input ligand: none

| Sequence | apparent KD of MS2 coat protein (input ligand: FMN 200 uM) [nM] | apparent KD of MS2 coat protein [1] [nM] | apparent KD of MS2 coat protein (input ligand: none) [nM] | apparent KD of MS2 coat protein [2] [nM] | apparent KD of MS2 coat protein [3] [nM] | apparent KD of MS2 coat protein [4] [nM] |
| --- | --- | --- | --- | --- | --- | --- |
| ACAUGUUGCGCAGGAUAUGGGACACAUGAGGAUCACCCAUGUGGUUACAUGUCUUACCAAGCGUCCCAGAAGGGUGUGAACAUG [Ex NG2 #32] (Eterna round: R96, puzzle: Exclusion NG 2) | 26 | 16.5 | 20.3 | – | – | – |
| AACCAGCGAGGAUAUGCUUGCGCGUGUUCUAGUUGUAAUCGACUUGAGGAUCACCCAAGUAGAAGGCGCUGCCG [EX2 #50] (Eterna round: R97, puzzle: Exclusion 2) | 103 | – | 119 | – | – | – |
| AGGUAACAUGAGGAUCACCCAUGUCAGGAUAUCAUGAAGAUUAGAUUAGAGGAGAGGUUGAGAAGGGACUAUAU [Excluse me! 16 - Jieux - Exclusion 1] (puzzle: Exclusion 1) | – | – | – | 45.4 | – | – |
| CUUAGACAUGAGGAUCACCCAUGUGAGGAUAUGAUACAAUCAUACUAACAUAAUCACAUCAGAAGGCACAUAUG [Mat - Mod of JL D68] (puzzle: Exclusion 1) | – | – | – | 55.8 | 34.6 | 52.4 |
| AGAUGCUCGAGUCGACAUGAGGAUCACCCAUGUACAGUUAGUGAGGAUAUCUGAGACACAUAGUAGGAGAAGGCGCGAACGUGA [Ex NG3 #14] (Eterna round: R96, puzzle: Exclusion NG 3) | – | 58.6 | – | – | – | – |
| GAAAAGGUAGAGGAUAUUUCAGAUCAAAGCUGCAAAGAAGGCUGCACAUGAGGAUCACCCAUGUGGUCUUAAAA [Mod of Quesina 8 - Jieux - Exclusion 6] (Eterna round: R97, puzzle: Exclusion 6) | 62.3 | – | 20.9 | – | – | – |
| AGCCCUGCAGGAUAUGCCCGGGAUAACAUGAGGAUCACCCAUGUGACCGAUUGUUAUCCUGCAGAAGGGCUAGGGA [JL-EX5-4.11 ViennaUCT mod] (Eterna round: R97, puzzle: Exclusion 5) | 126 | – | 49 | – | – | – |
| AUCAGCUCGUGAGGAUAUACAUGAGGAUCACCCAUGUGAUCAAUAGCAGCUUCGGCUGCAUACAUGUAGAAGGCACGAGCUGAU [ENG2/6-A3] (Eterna round: R96, puzzle: Exclusion NG 2) | 95.6 | 19.9 | 135 | – | – | – |
| UGCAAGCUUUAAAGAUCCUACAUGAGGAUCACCCAUGUGCUCGUCUUAUAACGUACUGUGACGAAAGUCACGGUACG [JL TOV1 3.96] (Eterna round: R97, puzzle: Sensor, turn-off variant 1) | 324 | – | 315 | – | – | – |
| AUUUUGUCAGGAUAUUAGUAGUAAAUAAAUAAAAUUAUUACUGAGAAGGGACAUGAGGAUCACCCAUGUGUCUU [Salish 062 v9] (Eterna round: R97, puzzle: Exclusion 4) | 39.5 | – | 18.3 | – | – | – |
| GGGCGGGCAGGAUAUACAUGAGGAUCACCCAUGUAUGUCCAAAGACAUACAUUCUUAUGUAGAAGGGCCCGCCC [Ex 4] (Eterna round: R97, puzzle: Exclusion 3) | 142 | – | 26.6 | – | – | – |
| CGAUGCAAAGUAAGGAUAUGCUUCCGGAAACGGAGGCAGAAGGUACAUGAGGAUCACCCAUGUUAAAAGCAUCG [Explosion 3 - Jieux - Brourd's mod of Exclusion 4] (Eterna round: R97, puzzle: Brourd's mod of Exclusion 4) | 16.3 | – | 14.2 | – | – | – |
| GAUUAUGCGAGCUUUAGGGACAUGAGGAUCACCCAUGUUCGUCUUAUUGGUCUAGGUGCACUAACAUACCUAAAUCU [JMF 36] (puzzle: Sensor v3, turn-off variant 1) | – | – | – | 33.7 | 22.3 | 23.6 |
| GGUUGGCGAGGAUAUACAUGAGGAUCACCCAUGUGAGAAAAUAAGUGAGGAAAGAAAAGUAGAAGGCGCUGACG [Mat - Exclusion 3 - Mod of Salish D53] (puzzle: Exclusion 3) | – | – | – | 55.8 | 570 | 37.1 |
| AUAAAGCAAGCAUGGUCCCACAUGAGGAUCACCCAUGUGUUCGUCUUAUAGGCUGCUGAGGCUUUUGCCUCGGUGGC [LRO Sensor-off var1-07 loose mod of D91 from Mat747] (Eterna round: R97, puzzle: Sensor, turn-off variant 1) | 155 | – | 179 | – | – | – |
| CAUCCACAUGAGGAUCACCCAUGUGAGGAUAUGAUACUAUGUACUUCGGUACAUAGUAUCAGAAGGCACAGGUG [Ex1-3: 59] (puzzle: Exclusion 1) | – | – | – | 111 | – | – |
| UAGCAGCGAGGAUAUACAGACAGGUCCAAUACGUGUCUUGGACUUGAGGAUCACCCAAGUAGAAGGCGCCACAG [salish99_ex2_r4_602] (Eterna round: R97, puzzle: Exclusion 2) | 104 | – | 62 | – | – | – |
| GGAUCGAGUGUGAGGAUAUACCUAUGGAUACAUAGGUAGAAGGCACAUGAGGAUCACCCAUGUCCUAACGGUCC [Eli bmx4 4.15] (Eterna round: R97, puzzle: Brourd's mod of Exclusion 4) | 933 | – | 308 | – | – | – |
| GGGCCCGGAGGAUAUACAUGAGGAUCACCCAUGUAUUUGGGCCCUAUUGGGCCCGGGUGUAGAAGGCCGGGCCC [-42.1, -39.5 kcal, A 19%, 5abis,0] (Eterna round: R97, puzzle: Exclusion 3) | 17.3 | – | 14.6 | – | – | – |
| CUGAUGUCAGGAUAUCAGAAAAGGCACAAGAACGCGCCAAAUGAGAAGGGACAUGAGGAUCACCCAUGUAAAAC [Reena] (puzzle: Exclusion 4) | – | – | – | 28.2 | 87.1 | 27.9 |
| GGCUAGUCAGGAUAUACGAACAUGUCAAAAGACGUGAAGGGACAUGAGGAUCACCCAUGUAGAAGGGACUAGCG [salish99_ex2_r3_002] (puzzle: Exclusion 2) | – | – | – | 25 | – | – |
| UUAAAUCAUGUAGGAUAUGCGUAGCGAAGCUAUGCAGAAGGACAUGAGGAUCACCCAUGUGCUUGCGUCCGCGUACGGAUGCUA [Mat - Exclusion NG 1 - Mod of JL - D66] (Eterna round: R96, puzzle: Exclusion NG 1) | 202 | 107 | 134 | – | – | – |
| UAUUAGCAAGCAAGAUCCUACAUGAGGAUCACCCAUGUGCUCGUCUUAAGCUCAGAAUUACUGAGCGCUCGUCUUAU [Winner reversed engineered 23] (Eterna round: R97, puzzle: Sensor, turn-off variant 1) | 468 | – | 645 | – | – | – |
| AGAUGACAUGAGGAUCACCCAUGUUAGGAUAUUUAAGCCUGUACGCGCGUACUAGACGAGAGAAGGGACAUGGC [Eternabot (Original) Solution 39] (Eterna round: R97, puzzle: Exclusion 1) | 33.9 | – | 30.7 | – | – | – |
| GCGUAGUAUGUAGGAUAUCGGUCAGUUUCUGAUCGAGAAGGACAUGAGGAUCACCCAUGUAAAACGCCCGCUUUGUGGGUACGC [JL ENG1 3.59] (Eterna round: R96, puzzle: Exclusion NG 1) | 55.4 | 17.6 | 22.4 | – | – | – |
